Earlier results on three substances are cited in article PMC6668730.

The target in series [1] is Histone H3 (Homo sapiens) (UniProt P68431).
Series [2] has the same target. The source holds these as a separate data set.
Series [3] has as its target Histone H3 (Drosophila melanogaster) (UniProt P02299).
For series [4], the target named is Histone H3 (Homo sapiens) (UniProt P68431). The source holds these as a separate data set.
Series [5] has as its target Histone H3 (Drosophila melanogaster) (UniProt P02299). The source holds these as a separate data set.

Read-outs that look alike come from different tables or passages of the source.

Chain of GLP1 ankyrin repeats (Q9H9B1 737-1004): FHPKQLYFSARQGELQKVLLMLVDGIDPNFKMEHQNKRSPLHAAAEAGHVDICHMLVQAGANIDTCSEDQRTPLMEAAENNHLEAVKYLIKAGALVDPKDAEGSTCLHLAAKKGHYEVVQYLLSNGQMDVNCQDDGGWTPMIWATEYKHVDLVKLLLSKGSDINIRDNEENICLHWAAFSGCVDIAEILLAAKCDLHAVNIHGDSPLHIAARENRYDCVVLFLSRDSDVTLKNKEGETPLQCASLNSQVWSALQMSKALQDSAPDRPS
Chain of G9a ankyrin repeats (Q96KQ7 649-879): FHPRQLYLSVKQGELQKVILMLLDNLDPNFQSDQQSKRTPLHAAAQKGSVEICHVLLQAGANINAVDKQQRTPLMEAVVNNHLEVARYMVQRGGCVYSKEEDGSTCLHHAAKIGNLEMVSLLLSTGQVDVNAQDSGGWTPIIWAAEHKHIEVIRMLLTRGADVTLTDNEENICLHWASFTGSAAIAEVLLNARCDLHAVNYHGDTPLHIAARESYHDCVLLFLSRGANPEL

As to BPTF PHD finger (from UniProt Q12830), the figures for the Kd in series [1] and in series [2] were 5 µM and 2.7 µM, respectively.
In the case of “G9a ankyrin repeats (from UniProt Q96KQ7)”, the Kd (commonly the equilibrium constant for the complex coming apart) in series [3] was 6 µM.
Take “GLP1 ankyrin repeats (from UniProt Q9H9B1)”: the values for the Kd in series [4] and in series [5] were 5 µM and 7 µM, respectively.
